From patent publication US20080249006A1, “Pharmaceutical Preparation for the Treatment of Shock” (FIBREX MEDICAL RESEARCH & DEVELOPMENT GESMBH, priority 2004, published 2008)

Experiments:
[1] = target: T1, recombinant human VE-cadherin FC fusion protein (Homo sapiens, UniProt P33151); assay: ELISA: binding of FLAG-tagged peptide to coated VE-cadherin
T1 construct: Fc (immunoglobulin Fc fusion partner); purchased R&D Systems, Minneapolis
From the text: (§1) We have developed a modified ELISA working with the same principles described by others, but the purpose of the herein described ELISA is not to quantify fibrin degradation products, but to search for proteins, peptides or compounds which interfere with the binding of the Bbeta15-42 sequence and the VE-cadherin. […] Into this system one can introduce any other additional substance and measure if this substance inhibits VE-cadherin/Bbeta15-42 binding.
(§2) In detail, 96 well protein immobilizer plates (Exiqon, Vedbaek, D K) were coated with recombinant human VE-cadherin FC fusion protein (8 nM/ml; R&D Systems, Minneapolis) in PBS and were left overnight at 4° C. Plates were then washed and incubated with peptide Bβ15-42 ([…]) tagged with a FLAG-sequence (DYKDDDDK) at the C-terminus of the peptide or with a FLAG-tagged random peptide ([…]) at a concentration of 0-80 μMol. After washing, bound FLAG-tagged peptide was detected by incubation with a peroxidase-labelled anti-FLAG antibody (Sigma, St. Louis, USA) and chromogenic substrate. Optical density was determined by an ELISA plate reader set at a wavelength of 450 nm. Data represent the mean of three independent experiments, each performed in triplicates.

VE-cadherin = target: T2, VE-cadherin (Homo sapiens, UniProt P33151); assay: Competition ELISA: inhibition of FLAG-tagged Bbeta15-42 binding to VE-cadherin; conditions: FLAG-tagged Bbeta15-42 12 μM
T2 construct: Fc (immunoglobulin Fc fusion partner); purchased R&D Systems, Minneapolis
T2 sequence (P33151 with tags, fused parts or gaps limits assumed): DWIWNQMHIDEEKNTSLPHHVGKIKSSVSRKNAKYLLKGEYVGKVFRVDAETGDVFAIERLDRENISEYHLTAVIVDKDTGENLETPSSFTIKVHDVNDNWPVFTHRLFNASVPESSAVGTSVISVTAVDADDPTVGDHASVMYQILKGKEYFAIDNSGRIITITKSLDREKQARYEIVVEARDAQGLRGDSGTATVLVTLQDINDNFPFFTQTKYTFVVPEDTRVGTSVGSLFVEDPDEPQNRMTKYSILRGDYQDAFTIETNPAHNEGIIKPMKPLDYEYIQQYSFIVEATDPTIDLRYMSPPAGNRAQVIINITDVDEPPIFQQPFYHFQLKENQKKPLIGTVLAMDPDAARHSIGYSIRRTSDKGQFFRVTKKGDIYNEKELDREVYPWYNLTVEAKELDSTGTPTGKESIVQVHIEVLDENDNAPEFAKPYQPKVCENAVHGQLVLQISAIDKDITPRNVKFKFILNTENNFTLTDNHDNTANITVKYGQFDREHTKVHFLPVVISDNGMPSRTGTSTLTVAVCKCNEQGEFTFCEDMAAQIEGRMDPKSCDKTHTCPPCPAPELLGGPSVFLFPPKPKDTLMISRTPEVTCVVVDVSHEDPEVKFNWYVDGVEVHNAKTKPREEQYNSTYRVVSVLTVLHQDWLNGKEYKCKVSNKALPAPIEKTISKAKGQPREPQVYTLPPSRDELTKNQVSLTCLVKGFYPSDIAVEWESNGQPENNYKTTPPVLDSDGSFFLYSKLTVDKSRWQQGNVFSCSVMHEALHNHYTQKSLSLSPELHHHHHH
From the text: as §1, §2
In a next step, we analyzed whether this ELISA can be used to screen for other peptides/compounds to compete with the binding of the Bβ15-42 sequence to VE-cadherin.
VE-cadherin was coated to the plastic surface at a concentration of 8 nM. Then indicated peptides were added at concentrations of 200 μM, NDSK or NDSK-II were added at indicated concentrations. Detection of binding of the FLAG-tagged Bbeta15-42 (12 μM) was performed as described above.

[2] = blocking reagent 200 μM, VE-cadherin 8 nM

T1 sequence (P33151 with tags, fused parts or gaps limits assumed): as above

Row | Substance | % inhibition of 15-42FLAG-binding to VE-cadherin mean ± SD (VE-cadherin; blocking reagent 12 μM) [%] | % inhibition of 15-42FLAG-binding to VE-cadherin mean ± SD (VE-cadherin; [2]) [%] | other results
1 | 15-42 FLAG: peptide Bβ15-42 (GHRPLDKKREEAPSLRPAPPPISGGGYR) tagged with a FLAG-sequence (DYKDDDDK) at the C-terminus (GHRPLDKKREEAPSLRPAPPPISGGGYRDYKDDDDK) |  |  | Binding to VE-cadherin, optical density at 450 nm (mean) ([1]; FLAG-tagged peptide 0 μM): 0; Binding to VE-cadherin, optical density at 450 nm (mean) ([1]; FLAG-tagged peptide 0.23 μM): 0.01; Binding to VE-cadherin, optical density at 450 nm (mean) ([1]; FLAG-tagged peptide 0.7 μM): 0.02; Binding to VE-cadherin, optical density at 450 nm (mean) ([1]; FLAG-tagged peptide 2.3 μM): 0.08; Binding to VE-cadherin, optical density at 450 nm (mean) ([1]; FLAG-tagged peptide 7 μM): 0.33; Binding to VE-cadherin, optical density at 450 nm (mean) ([1]; FLAG-tagged peptide 14 μM): 0.92; Binding to VE-cadherin, optical density at 450 nm (mean) ([1]; FLAG-tagged peptide 21 μM): 1.3; Binding to VE-cadherin, optical density at 450 nm (mean) ([1]; FLAG-tagged peptide 35 μM): 1.5; Binding to VE-cadherin, optical density at 450 nm (mean) ([1]; FLAG-tagged peptide 46 μM): 1.93; Binding to VE-cadherin, optical density at 450 nm (mean) ([1]; FLAG-tagged peptide 70 μM): 2.1
2 | peptide 15-18 (4mer): shorter peptide, amino acids 15-18 of the fibrin Bβ chain | 7 ± 2 | 65 ± 12 | 
3 | peptide 15-26 (12mer): shorter peptide, amino acids 15-26 of the fibrin Bβ chain | 6 ± 1 | 64 ± 10 | 
4 | peptide 15-30 (16mer): shorter peptide, amino acids 15-30 of the fibrin Bβ chain | 6 ± 3 | 61 ± 13 | 
5 | peptide 15-34 (20mer): shorter peptide, amino acids 15-34 of the fibrin Bβ chain | 7 ± 1 | 67 ± 17 | 
6 | peptide 15-37 (24mer): shorter peptide, amino acids 15-37 of the fibrin Bβ chain | 7 ± 2 | 17 ± 19 | 
7 | peptide 16-42 (27mer): shorter peptide, amino acids 16-42 of the fibrin Bβ chain | 5 ± 2 | 55 ± 13 | 
